Consider 1 substance from publication PMC11790868.

One experiment concerns the target H3K36MTU nucleosome (UniProt P0C0S8). Description: native gel or EMSA; nucleosomes 100 nM, NAD+ 0 or 150 uM, SIRT7 0-1.6 uM; 10 mM Tris-HCl, 50 mM KCl, 1 mM DTT, pH 7.5; 25 °C, 30 min; 5% TBE native gel run on ice, GelRed.
The next experiment addresses H3K18DTU nucleosome (UniProt P0C0S8). Described as above.

Values joined by “and” are separate entries in the source; they are usually repeats but may differ in a detail not shown here. Identical values can stand only once.

For the substance “SIRT7 (wild type, full length) (from UniProt Q9NRC8 1-400) (enzyme)”, the stoichiometry N (SIRT7 per nucleosome) in the experiment with H3K36MTU nucleosome was 1 and 2; with H3K18DTU nucleosome, 1 and 2.
